Test results: paper doi:10.1101/2025.01.14.633037

Assay: FRET or BRET; DAmFRET: mEos3.1 fusions expressed in S. cerevisiae, galactose induction 20 hr with 100 uM MG132, partial photoconversion of mEos3.1, flow cytometry; AmFRET between copies of the same protein against its intracellular concentration (approximately 2 to 200 uM)

## MBP fused to mEos3.1 and poly-TA (28 residues, two continuous TA tracts of length 12)
  fold increase of Csat against poly-TA without the solubility tag: > 10 fold
